Reference: IntAct's records for PubMed 22246185

B1: Apoptotic protease-activating factor 1 (Homo sapiens), O14727 (parent)
chain: MDAKARNCLLQHREALEKDIKTSYIMDHMISDGFLTISEEEKVRNEPTQQQRAAMLIKMILKKDNDSYVSFYNALLHEGYKDLAALLHDGIPVVSSSSGKDSVSGITSYVRTVLCEGGVPQRPVVFVTRKKLVNAIQQKLSKLKGEPGWVTIHGMAGCGKSVLAAEAVRDHSLLEGCFPGGVHWVSVGKQDKSGLLMKLQNLCTRLDQDESFSQRLPLNIEEAKDRLRILMLRKHPRSLLILDDVWDSWVLKAFDSQCQILLTTRDKSVTDSVMGPKYVVPVESSLGKEKGLEILSLFVNMKKADLPEQAHSIIKECKGSPLVVSLIGALLRDFPNRWEYYLKQLQNKQFKRIRKSSSYDYEALDEAMSISVEMLREDIKDYYTDLSILQKDVKVPTKVLCILWDMETEEVEDILQEFVNKSLLFCDRNGKSFRYYLHDLQVDFLTEKNCSQLQDLHKKIITQFQRYHQPHTLSPDQEDCMYWYNFLAYHMASAKMHKELCALMFSLDWIKAKTELVGPAHLIHEFVEYRHILDEKDCAVSENFQEFLSLNGHLLGRQPFPNIVQLGLCEPETSEVYQQAKLQAKQEVDNGMLYLEWINKKNITNLSRLVVRPHTDAVYHACFSEDGQRIASCGADKTLQVFKAETGEKLLEIKAHEDEVLCCAFSTDDRFIATCSVDKKVKIWNSMTGELVHTYDEHSEQVNCCHFTNSSHHLLLATGSSDCFLKLWDLNQKECRNTMFGHTNSVNHCRFSPDDKLLASCSADGTLKLWDATSANERKSINVKQFFLNLEDPQEDMEVIVKCCSWSADGARIMVAAKNKIFLFDIHTSGLLGEIHTGHHSTIQYCDFSPQNHLAVVALSQYCVELWNTDSRSKVADCRGHLSWVHGVMFSPDGSSFLTSSDDQTIRLWETKKVCKNSAVMLKQEVDVVFQENEVMVLAVDHIRRLQLINGRTGQIDYLTEAQVSCCCLSPHLQYIAFGDENGAIEILELVNNRIFQSRFQHKKTVWHIQFTADEKTLISSSDDAEIQVWNWQLDKCIFLRGHQETVKDFRLLKNSRLLSWSFDGTVKVWNIITGNKEKDFVCHQGTVLSCDISHDATKFSSTSADKTAKIWSFDLLLPLHELRGHNGCVRCSAFSVDSTLLATGDDNGEIRIWNVSNGELLHLCAPLSEEGAATHGGWVTDLCFSPDGKMLISAGGYIKWWNVVTGESSQTFYTNGTNLKKIHVSPDFKTYVTVDNLGILYILQTLE

Variants of: B1
Settings: with 1433e_human YWHAE

Variant	effect of a mutation on the interaction
S357A	decreasing interaction

Variants of: B1
Settings: with 1433e_human YWHAE
Remark: another data set of the same source

Variant	effect of a mutation on the interaction
S268A	decreasing interaction
